± gives the half width of the 95% confidence interval.
Columns and labels:
[1] = folding stability dG unfold from chymotrypsin proteolysis; higher = more stable
Protocol: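 Folding stability of de novo designed mini-proteins (<80 aa, no Cys; designed by TrROS, TrMRF, ProteinMPNN and the joint model) was measured by cDNA display proteolysis with trypsin and chymotrypsin. Each protease was used at 11 concentrations in a threefold dilution series plus a no-protease condition. K50 was inferred by Bayesian fitting of sequencing counts, and dG unfold was derived against a sequence-predicted unfolded-state K50 (Tsuboyama et al. method). Sequences shown include variable-length N-terminal GS-type padding (SAGGSAGG...) inside a display construct carrying a PA tag. Rows were kept only if the AF2 dimer inter-PAE was >15, to exclude likely homo-oligomers.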

[2] = folding stability dG unfold (combined trypsin and chymotrypsin); higher = more stable
Outline: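 Bayesian fitting of sequencing counts gave K50 for each design. Unfolding free energy followed by setting this against a sequence-predicted unfolded-state K50 and a shared folded-state K50, either per protease or with trypsin and chymotrypsin combined. The designs, under 80 residues and lacking cysteine, were digested in a PA-tagged cDNA display format at 11 threefold-diluted protease concentrations and without protease, and only those with AlphaFold2 dimer inter-PAE above 15 were kept.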

Sequence	folding stability dG unfold [1] [kcal/mol]	folding stability dG unfold [2] [kcal/mol]
SAGGEITIVIEGMSEEEREKALEEVRNKIKELKEKHPEKKITIVVDTPEAKKVAEELKKEGYEVEILSAGGS [r16_450_TrROS_Hall]	2.06 ± 0.15	2.86 ± 0.43
SAGGSAMIEVRTVAGEPVEVTPIPEDEVLVARTPGGRKAPFLLGEDVLRELVVEPDAPPDLFIVPGSAGGSA [r15_709_TrMRF]	-0.141 ± 0.093	-0.617 ± 0.13
SAGGSAGGSAGGAVERFPGPATVTALPDGRRLVTTTDPSGRPTLTLLEVETPERVTAHPASAGGSAGGSAGG [r7_423_JUSTAS]	0.286 ± 0.038	-0.663 ± 0.2
SAGGSAGGSAGGSEEKPLVIPIPAHPDIPAEVVRKAVEPLTGVPIEAVLGDEDTLLVVGSAGGSAGGSAGGS [r4_469_TrMRF]	0.661 ± 0.022	0.187 ± 0.077
SAGGSAGGSAGGAMDLPPSREAEIKLPNGETIRIFRPPDGSITLEFYDKGGKKTKIIPNSAGGSAGGSAGGS [r10_150_JUSTAS]	-0.124 ± 0.17	< -1
SAGGSAGGSAGMIQIDQDPNNGNYKVKIRNPDGKPREFNVDSPDELEDAADKNGFPAEPISAGGSAGGSAGG [r11_1049_TrROS]	-0.0704 ± 0.14	-0.512 ± 0.41
SAGGSAGGSAGMESKVVTLDVPLAPDETAEAVAARLRAADPAAVLLGYDPAAGRVTVRVASAGGSAGGSAGG [r11_465_JUSTAS]	0.411 ± 0.078	-0.332 ± 0.087
SAGGSAARVVEEIPGVGLLIAKPPTSDEPEIVLSLAELEEARRRSGVPPELAALIAANPDLTLELVSAGGSA [r15_359_JUSTAS]	-0.297 ± 0.43	< -1
SAGGGMPVPEVEVELLEEREVPGGRVTLGRAKTPDAWETLTTEYDPATGRRRTWRETPEGVTPYAEEGSAGG [r13_445_JUSTAS]	-0.567 ± 0.65	< -1
SAGSLPPDVTVPIPRRVRLSESDPALLEAARNGEPVYEELPGDVRVTVELRPLPPDELEVTERVYFPAGSAG [r5_223_JUSTAS]	0.444 ± 0.12	-0.000299 ± 0.27
SVITANDIKEMRKLGIEPIEHDPDNRYRFKFPRMNQPIEVEVKPVPPPPPIEIPDNMDSPEEADKWQDTFSA [r9_649_TrROS]	0.565 ± 0.16	0.259 ± 0.23
SAGGLTLSTFESDEDVKPEWDPNKPVKVKVKTLTTTEPVPNRPHTVTTTTTLRENEEGTTPFTGTDTSAGGS [r16_300_JUSTAS]	0.612 ± 0.061	-0.11 ± 0.12
SAGGSAENLVRTTRTTEALPDGGTRTTTTTTLPGGLTVVTRPYYDPATGTTATTTTTLAPDETVTDSAGGSA [r15_917_JUSTAS]	0.447 ± 0.05	-0.0377 ± 0.16
SAGGSAGGSAGKKKITIDYEEIREKFGLPPDDIDNMSMSRVMNYAKPLAKEGKIDEIEISSAGGSAGGSAGG [r11_80_TrROS]	-0.291 ± 0.53	< -1
SAGGRIKIDIDPHPNEPGQPVMIKIKHPNGEREIPIPPNQSPEELKEAADDLAEENGFPIDDVEIHPSAGGS [r16_753_TrROS]	0.661 ± 0.059	0.154 ± 0.16
SAGGPNPKTVEIPSPGTPEDVRARVEELAAELRPRGRPVTVTVTVGSTPRTLALAEVASVPPDATATVGSAG [r5_626_JUSTAS]	-0.933 ± 0.4	< -1
SAGESTLELTETSFPDGTTARVTTTRYPGLVRREATVTLPDGTVERLSAEVTLDEDEEVVTTSRSPLPSAGG [r19_385_JUSTAS]	-0.247 ± 0.13	-0.666 ± 0.45
SAGPPEPREIEIPVEGSWSDLRNQVKNVAEEAQPKGEPVQIKIEWGGRPRKYTLNDIDDVPPWMKVEIYSAG [r5_626_TrROS]	-0.0343 ± 0.48	-0.449 ± 0.74
SAGGSAGGSAGGMIDIPISPEIAENVPPGATVEVEILRDDGRIERLKVKVEDFEPVLPGGSAGGSAGGSAGG [r7_732_TrMRF]	0.308 ± 0.044	0.0628 ± 0.26
SAGGSAGGSAGGRTYRLTLTRPDGRPLTFEVPTDTAPEHVELLKSLFPDEEIEADISDVESAGGSAGGSAGG [r7_349_TrMRF]	0.491 ± 0.22	-0.652 ± 0.46
SAGGSAGGSAGMYDVGFIEAPKDTAYIKFPEINYIAEIKLDPKNGGFSLDEIKLYPLNTKSAGGSAGGSAGG [r11_352_TrMRF]	0.521 ± 0.067	0.107 ± 0.11
SAGGSMKIVKKSEDPSPPVETIEVDPNLDIEKIINELKNQPNVKVDKSTDPNSSKKTITITRPVDGSAGGSA [r2_44_JUSTAS]	0.0999 ± 0.058	-0.224 ± 0.086
SAGGSRMRILNIDPESNRIRVRHPGKPFTFPVDNIEEVTIDPNDGYLTIKMKGETQTIPLDDPDAFSAGGSA [r2_48_TrROS]	0.575 ± 0.16	0.0825 ± 0.18
SNLKIKWPNGHEIPIQKNNENVRIKFPGNGQEHPIPKEALEDNTPEEILDHLRDHFRQHGMPPMPVEIEKSA [r9_1211_TrROS]	0.602 ± 0.083	0.192 ± 0.38

Source: the supplement of paper PMC12764529
